Assay results from patent US10704064B2, “Recombinant yeast producing 3-hydroxypropionic acid and method for producing 3-hydroxypropionic acid using the same” (SK Innovation Co., Ltd., priority 2014, dated 2020).

Tests used:
[1] = test system: AADH; assay: AADH in vitro enzyme activity assay from yeast cell lysates; type: biochemical; conditions: in vitro, expressed in yeast
Procedure: AADH activity was measured as described by Kozak et al. (2014, Metab. Eng. 21:46-59) by monitoring the reduction of NAD^+ at 340 nm at 30° C. The yeast cells for the cell lysates were collected, washed with water, and then resuspended into lysis buffer containing 100 mM Tris-HCl buffer (pH 7.5) and 1×EDTA free protease inhibitor cocktail (Roche). The cells were lysed with glass beads in a Precellys 24 homogenizer at 5500 rpm for 3×40 seconds and kept on ice between rounds. Lysates were centrifuged at 16 000 g for 20 min at 4° C. and supernatants were collected. The total protein concentration was determined using the Bradford method.
The enzyme assay reaction mixture contained 0.1 mM Coenzyme A, 50 mM CHES buffer (pH 9.5), 0.8 mM NAD^+, 0.2 mM DTT and 10 μL of cell extract in a total reaction volume of 200 μL. The reaction was started by adding 10 mM of freshly prepared acetaldehyde solution and reduction of NAD^+ was followed with a Thermo Konelab 20XT analyser.
Five AADH genes were originally chosen (i.e. ADHEpm, ADHEec, EUTec, EUTdz and LIN1129li) and transformed into the CEN.PK lab strain. These AADHs were expressed from a multicopy plasmid where they were under control of the TEF1 promoter.
Twenty additional novel AADH genes were chosen from the genome mining analyses to be evaluated for expression and enzyme activity in yeast.

[2] = test system: S. cerevisiae VSK-128 ACS2 deletion strain; assay: AADH in vivo growth assay, ACS2 deletion strain on glucose-based agar plates; type: cell-based
Text: All copies of the ACS2 gene were deleted from the industrial S. cerevisiae VSK-128 strain in order to generate a strain with a defective PDH-bypass that was incapable of growth on glucose-based medium. Expression vectors carrying the 25 different AADH variants were then transformed into this ACS2 deletion strain to evaluate their ability to recover the growth of this strain on glucose.
There was a good correlation between the in vitro AADH enzyme activity assays and the in vivo growth recovery analyses.

[3] = test system: MCR; assay: archaeal MCR activity assay in E. coli lysates (microtitre plate); type: biochemical; conditions: E. coli cell lysate, NADPH or NADH
Procedure: (§1) pBAT T7 promoter based expression constructs were made for four different archaeal MCRs, Metallosphaera sedula (MCRms), Sulfolobus tokodai (MCRst), Candidatus caldiarchaeum (MCRcc), and Sulfolobales archaeon (MCRsa1).
Their activity was analyzed using the following assay conditions: 0.4 mM NAD(P)H; 0.15 mM Malonyl-CoA; Tris-HCl pH 7; 2 mM MgCl2. Assays on 20 times diluted lysates were performed in microtitre plate (MTP) format at RT. The oxidation of NADPHT or NADHT at A^365 in time was followed. […] However, the MCR activities were smaller than that measured for the tagged MCRca.

[4] = SDS-PAGE expression levels of MCR constructs in E. coli lysate
Text: as §1

[5] = test system: MCR; assay: MCR enzyme assay from yeast cell lysates; type: biochemical; conditions: NADPH as a cofactor
Procedure: The MCR enzyme activity was measured according to the method described by Chen et al. (2014, Metab. Eng. 22:104-109) with slight modifications. The method is based on monitoring the oxidation of NAD(P)H at 340 nm.
Cells were collected and washed with cold wash buffer containing 20 mM Tris-HCl (pH 7.5), 20 mM NaN3 and then resuspended in 1 mL of breaking buffer containing 50 mM HEPES (pH 7.5), 150 mM KCl, 1 mM DTT, 1 mM EDTA, 0.5% Triton X-100 and 1×EDTA free protease inhibitor cocktail (Roche). The cells were lysed with glass beads in a Precellys 24 homogenizer at 5500 rpm for 3×40 seconds and kept on ice between rounds. Lysates were centrifuged at 16 000 g for 20 min at 4° C. and supernatants were collected. The total protein concentration was determined using the Bradford method.
The MCR assay mixture contained 50 mM Tris-HCl buffer (pH 8.0), 5 mM MgCl2 and 0.3 mM NADPH or NADH. After adding 20 μL of cell lysate into a total reaction volume of 200 μL, the reaction was pre-incubated for five minutes at 30° C. after which the reaction was started by addition of 0.15 mM malonyl-CoA. The assay was monitored at 340 nm with a Thermo Konelab 20XT analyser.
The eight full-length Chloroflexus MCR homologues were truncated into their two functional domains and the MCR-specific domains were assayed for enzyme activity in yeast along with the six archaeal MCRs. […]

B1: AADHvs: eutE type AADH of Vibrio sp. EJY3, GenBank AEX22176.1 (protein)
chain: MNEQEIAHAVENVLSKYTNVTAQNAEPVSYSSNASLENIVSQALAGNMVKQPETQTAPDLNSNIENIVSQILAENQAKPQSVQCQSANHGTTEYLGCFASMEEAISAASHAQVQYRHCTMGDRASFVKGIREVFTQDDVLEKISRMAVEETGMGNYADKLTKNRIAATKTPGIEDLTTSALSGDSGLTLTEFSAYGVIGSITPTTNPTETIINNSIGMLAAGNTVVYSPHPRSRNVSLVAVDLINRKLAELGAPANLVVTVLEPSIDNTNAMMNDPRVNMLVATGGPSIVKTVMSTGKKAIGAGAGNPPAVVDETANIEKAAKDIINGCAFDNNLPCIAEKEVIVVNEVADYLIHCMKKSGAYLLCDKQKIQQLQSLVLNEKGTGPNTSFVGKGARYILDKLNIQVSDDIKVILIETERNHPFVVHELMMPILPVVRVENVDEAIDLAIKVEHGNRHTAIMHSTNVEKLSKMARLIQTTIFVKNGPSYSGIGVGGEGHTTFTIAGPTGEGITSARSFARYRRCVMVEALNIR
modifications: AADHvs
[1]
  AADH activity: shown to have AADH activity
[2]
  recovery of the growth deficiency of the ACS2-deletion strain: capable of recovering the growth deficiency

B2: MCRcc: archaeal malonyl-CoA reductase of Candidatus Caldiarchaeum subterraneum, GenBank BAJ50751.1 (protein)
chain: MKTYSVAILGATGMVGQHYIRMLYRHPWFRITALTGKESVGRKYVEAVRGEAPEPPKEIAEMEVLPTDPKKVDADFVFSCLPTEAAREAEPKFAEAGFPVFSDAAAYRMEEDVPLIVPEINHDHLNMVHIQRKKRGWEGYIVTTPNCTTVGLVLPLQPLKQHLGVKKVIVTTMQAVSGAGYPGVASLSILGNVIPYISGEERKVETETAKILGRYGDGRFTHDSVEVHATCTRVPTLDGHMESIYLETAKPADEETVAELLAEYVSLPQELNLPTAPARPIVVRRELDRPQTRIDVDAGTVPGMSVSVGRIRVNGEKVRFISLSHNLIRGAAGGTILTAELARHMGLLGE
modifications: Candidatus Caldiarchaeum
[3]
  MCR activity: No activity on NADPH or NADH could be measured
[4]
  expression level: could not be expressed in a soluble form

B3: MCRsa1: archaeal malonyl-CoA reductase of Sulfolobales archaeon Acd1, WP_020198954.1 (protein)
chain: MRRTLKAAILGATGLVGIEYVRMLSQHPYIKPAYLAGKGSVGKAYSEVVRWQTVGQVPKEVADMPVLPTDVNEIKKAGVDIVFSPLPQGAAGPVEEEFAKAGFPVISNSPDHRFDPDVPLMIPEVNGHTASLIDEQKKRRDWSGFIVTTPLCTAQGIAIPLAPIYRDFRVDSVFITTMQSLSGEGYPGVASLDVVDNIKVLGDAYDAKTVKEVTRILSEVKRNVPGTMDELTLSATTHRIATIHGHYEVMYVTFKEDVKVEKVKETLANFKGEPQDMKLPTAPSRPILITELDNRPQPYFDRWAGDVPGMSVVVGRLKQVNNRTVRLVSLIHNTVRGAAGGGILVAEYLIEKGYIPK
modifications: Sulfolobales archaeon
[5]
  MCR enzyme activity compared to the wild-type strain: higher than the wild-type strain
[3]
  MCR activity: showed the highest MCR activity
[4]
  expression level: highest expression levels
